Reference: patent US20040175824A1
Where “and” joins values, the source holds several entries; their conditions need not be identical. Equal values may be shown once.

Target: human EPO receptor (EPO-Rc) (human) (UniProt P19235)
Test: cell-based or functional assay

Sequence of UniProt P19235 (P19235 25-508): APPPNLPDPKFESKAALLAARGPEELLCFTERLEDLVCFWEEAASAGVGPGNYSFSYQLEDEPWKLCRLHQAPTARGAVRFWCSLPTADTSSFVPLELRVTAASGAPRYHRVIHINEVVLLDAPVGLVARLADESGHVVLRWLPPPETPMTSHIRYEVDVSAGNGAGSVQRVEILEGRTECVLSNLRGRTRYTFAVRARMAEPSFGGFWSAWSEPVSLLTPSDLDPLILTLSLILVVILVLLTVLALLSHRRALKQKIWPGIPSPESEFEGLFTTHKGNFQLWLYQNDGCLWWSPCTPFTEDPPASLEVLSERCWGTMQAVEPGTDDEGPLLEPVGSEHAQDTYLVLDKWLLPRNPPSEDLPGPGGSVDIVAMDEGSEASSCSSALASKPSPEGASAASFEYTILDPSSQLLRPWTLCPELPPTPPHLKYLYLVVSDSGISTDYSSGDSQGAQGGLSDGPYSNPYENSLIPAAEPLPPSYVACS

proliferation of the 32D1.9 cells (MTT, OD 550 nm); in vitro biological activity on a molar basis: 3e+06 units/µmole and 4e+06 units/µmole
Substance: Recombinant human EPO (rHuEPO) (from UniProt P01588 28-192) (ligand)
